# Assay results reported in US12091776B2, “Protease activity profiling via programmable phage display of comprehensive proteome-scale peptide libraries” (THE JOHNS HOPKINS UNIVERSITY, priority 2019, dated 2024).
# Values joined by “and” are separate entries in the source; they are usually repeats but may differ in a detail not shown here. Equal values may be shown once.
# T1: endogenous Caspase-1 (Homo sapiens, UniProt P29466)
# T1 construct: endogenous in cells; host or cells: PMA-differentiated THP-1 cells
# T1 sequence (P29466 120-404): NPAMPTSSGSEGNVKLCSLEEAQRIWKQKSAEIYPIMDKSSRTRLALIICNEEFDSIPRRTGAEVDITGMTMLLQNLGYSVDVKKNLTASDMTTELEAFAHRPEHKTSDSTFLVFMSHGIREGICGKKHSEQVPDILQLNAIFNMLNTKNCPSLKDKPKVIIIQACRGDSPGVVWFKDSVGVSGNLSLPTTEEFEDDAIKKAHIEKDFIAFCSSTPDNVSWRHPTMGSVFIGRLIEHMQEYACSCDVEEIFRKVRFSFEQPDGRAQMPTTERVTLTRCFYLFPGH
# T2: Caspase-1 (Homo sapiens, UniProt P29466)
# T2 construct: purchased BioVision
# T2 sequence (P29466 120-297 limits assumed): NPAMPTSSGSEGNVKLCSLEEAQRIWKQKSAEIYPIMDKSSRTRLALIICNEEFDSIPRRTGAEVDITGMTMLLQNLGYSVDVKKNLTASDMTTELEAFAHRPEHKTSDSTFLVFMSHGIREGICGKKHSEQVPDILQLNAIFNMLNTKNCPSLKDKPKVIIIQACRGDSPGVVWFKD
# T2 sequence (P29466 317-404 limits assumed): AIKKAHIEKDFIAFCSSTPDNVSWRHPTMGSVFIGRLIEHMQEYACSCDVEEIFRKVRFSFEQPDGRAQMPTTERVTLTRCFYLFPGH
# B1: Gasdermin-D: well characterized human Caspase-1 substrate (protein, UniProt P57764 1-484, looked up)
# Gasdermin-D: MGSAFERVVRRVVQELDHGGEFIPVTSLQSSTGFQPYCLVVRKPSSSWFWKPRYKCVNLSIKDILEPDAAEPDVQRGRSFHFYDAMDGQIQGSVELAAPGQAKIAGGAAVSDSSSTSMNVYSLSVDPNTWQTLLHERHLRQPEHKVLQQLRSRGDNVYVVTEVLQTQKEVEVTRTHKREGSGRFSLPGATCLQGEGQGHLSQKKTVTIPSGSTLAFRVAQLVIDSDLDVLLFPDKKQRTFQPPATGHKRSTSEGAWPQLPSGLSMMRCLHNFLTDGVPAEGAFTEDFQGLRAEVETISKELELLDRELCQLLLEGLEGVLRDQLALRALEEALEQGQSLGPVEPLDGPAGAVLECLVLSSGMLVPELAIPVVYLLGALTMLSETQHKLLAEALESQTLLGPLELVGSLLEQSAPWQERSTMSLPPGLLGNSWGEGAPAWVLLDECGLELGEDTPHVCWEPQAQGRMCALYASLALLSGLSQEPH
# B2: IL-1β: mouse IL-1β (SEQ ID NO:73); library peptides containing Caspase-1 cleavage sites D26 and D117 (protein, UniProt P10749 118-269, looked up)
# Interleukin-1 beta: VPIRQLHYRLRDEQQKSLVLSDPYELKALHLNGQNINQQVIFSMSFVQGEPSNDKIPVALGLKGKNLYLSCVMKDGTPTLQLESVDPKQYPKKKMEKRFVFNKIEVKSKVEFESAEFPNWYISTSQAEHKPVFLGNNSGQDIIDFTMESVSS
# B3: APLPRSNRSRCPGTRQPGAASLHAASAAVPVRPRRGTAPAGKTADAVPAAAPEQAPRPAPQSRKPRNLEGDLDERRLLCHLQLAQDREAR (protein, listed as Homo sapiens)
# chain: APLPRSNRSRCPGTRQPGAASLHAASAAVPVRPRRGTAPAGKTADAVPAAAPEQAPRPAPQSRKPRNLEGDLDERRLLCHLQLAQDREAR
# Experiments:
# endogenous Caspase-1 = target: T1, endogenous Caspase-1; experiment: In vitro stimulation of the inflammasome in THP-1 cells (Western blot); assay type: cell-based; details: PMA differentiated THP-1 cells, LPS and Nigericin
# Description: THP-1 cells were cultured in RPMI-1640 media with Glutamax (Gibco, ThermoFisher, Cat #61870127), supplemented with 10% FBS (Hyclone SH30071, GE Life Sciences), and 1× Antibiotic-Antimycotic (Gibco, ThermoFisher, Cat #15240062), referred to as complete RPMI. To differentiate THP-1 cells into macrophages, 1×10^6 THP-1 cells were added per well of a 6-well plate in complete RPMI medium containing 50 ng/ml Phorbol 12-myristate 13-acetate (PMA, diluted in RPMI medium from a 1 mg/ml PMA stock in DMSO, Millipore Sigma, Cat. No. P1585). After 48 hours when the cells become adherent, the medium with PMA was removed, cells washed in 1×PBS once, and fresh complete RPMI was added. Cells were allowed to rest for an additional 24 hours before inflammasome activation with LPS and Nigericin.
# A 6-well plate of PMA differentiated THP-1 cells were treated with 0, 1 or 0.1 μg/ml LPS (Millipore Sigma, Cat. No. LPS25) for 3.5 hours. After 3.5 hours, cells were treated with 2.5 μM Nigericin for an additional 30 minutes to activate the inflammasome. Cells were washed in 1×PBS and lysed in 1× mammalian cell extraction buffer (BioVision, Cat. No. K269) containing 2 μM Dithiothreitol (DTT). Nuclei were spun down by centrifugation (10,000 rpm, 5 minutes, 4° C.) and the cleared supernatant was used to perform Western blots. […]
# Caspase-1 [1] = target: T2, Caspase-1; experiment: SEPARATE assay: human peptidome library digest with Caspase-1; assay type: biochemical; details: human library, Caspase-1
# Description: (§1) Streptavidin-coupled magnetic beads (Dynabeads M-280 Streptavidin, ThermoFisher Scientific) were washed (TBS, pH 7.4, 0.01% NP40) and resuspended in binding buffer (TBS, pH 7.4, 0.001% NP40) containing 2E9 plaque forming units per 10 μl of bead slurry. End-over-end mixing at room temperature was performed for one hour. Phage-coated beads were washed three times with wash buffer and transferred into two protein LoBind Eppendorf tubes blocked with TBS, pH 7.4 containing 1% BSA.
# Digestion occurred overnight at room temperature with end-over-end rotation. […] To remove any residual biotinylated phage that may have been nonspecifically released, the 150 μl supernatant of the quenched digest reaction is then incubated with a fresh 10 μl of slurry volume M280 streptavidin beads (pre-washed three times with wash buffer) in a LoBind Eppendorf tube blocked with TBS, pH 7.4 containing 1% BSA at room temperature for one hour with end-over-end rotation.
# 10 μl slurry volume of protein G magnetic dynabeads were washed in buffer (TBS, pH 7.4, 0.01% NP40) and then resuspended in 50 μl TBS, pH 7.4, 0.01% NP40 containing 4 μg of M2 FLAG antibody for thirty minutes at room temperature with end-over-end rotation. The 150 μl quenched digest reaction is added to the 10 μl FLAG-coated Protein G beads and incubated for 60 minutes at room temperature with end-over-end rotation to capture phage particles released at the protease digest step. Beads are rinsed once with 100 μl wash buffer and stored at −80° C. until PCR amplification.
# Library PCR preparation, high-throughput DNA sequencing, and peptide read count data generation was performed as described previously.^44 Briefly, library peptide inserts are amplified by resuspending 10 μl of FLAG-coated Protein G beads in PCR1 master mix containing the T7-Pep2_PCR1_F forward primer ([…]) (SEQ ID NO:3) and a T7-SEPARATE vector specific reverse primer ([…]) (SEQ ID NO:4), which includes an adapter sequence for sample-specific barcoding and Illumina P7 adapter incorporation during a subsequent PCR2 reaction. The PCR2 amplicons are pooled and sequenced using an Illumina NextSeq instrument in standard output mode to obtain single-end 50 nucleotide reads. Dual indexed sample demultiplexing and clonal read count determination were performed using exact sequence matching. […] To calculate the normalization factor, 100 peptides were randomly selected from the mock digest conditions with a read count ranging between 10 and 40. The median read count value for these 100 peptides is calculated for each sample. The random peptide selection and median calculation is performed 20 times and the average of the 20 median values is calculated for each sample. Finally, the normalization factor is calculated by dividing the average median value for each sample by that for one of the mock digest conditions. Read counts are then converted to normalized read counts by dividing each sample's read count values by the normalization factor. Fold enrichments are calculated for each peptide by dividing their normalized read counts in the digest condition by the normalized read counts in the mock digest condition. The fold enrichments can be visualized in an MA plot by transforming the normalized read count data into a log ratio (M, on the y-axis) and a mean average (A, on the x-axis) between the digest and mock digest conditions.
# Caspase-1 [2] = target: T2, Caspase-1; experiment: SEPARATE assay: 56-amino acid mouse peptidome library digested with Caspase-1; assay type: biochemical; details: mouse library peptides of IL-1β and Gsdmd, FIG. 8
# Description: as §1
# Digestion occurred overnight at room temperature with end-over-end rotation. […]
# Library PCR preparation, high-throughput DNA sequencing, and peptide read count data generation was performed as described previously.^44 Briefly, library peptide inserts are amplified by resuspending 10 μl of FLAG-coated Protein G beads in PCR1 master mix containing the T7-Pep2_PCR1_F forward primer ([…]) (SEQ ID NO:3) and a T7-SEPARATE vector specific reverse primer ([…]) (SEQ ID NO:4), which includes an adapter sequence for sample-specific barcoding and Illumina P7 adapter incorporation during a subsequent PCR2 reaction. The PCR2 amplicons are pooled and sequenced using an Illumina NextSeq instrument in standard output mode to obtain single-end 50 nucleotide reads. Dual indexed sample demultiplexing and clonal read count determination were performed using exact sequence matching. […]
# Thrombin = target: T3, Thrombin (Homo sapiens, UniProt P00734); experiment: SEPARATE assay: human peptidome library digest with Thrombin; assay type: biochemical; details: top 20 enriched peptides, human library (90-aa tiles); digest vs mock digest
# T3 construct: Thrombin (a serine protease); purchased SignalChem
# Description: The PCR2 amplicons are pooled and sequenced using an Illumina NextSeq instrument in standard output mode to obtain single-end 50 nucleotide reads. Dual indexed sample demultiplexing and clonal read count determination were performed using exact sequence matching. […] To calculate the normalization factor, 100 peptides were randomly selected from the mock digest conditions with a read count ranging between 10 and 40. The median read count value for these 100 peptides is calculated for each sample. The random peptide selection and median calculation is performed 20 times and the average of the 20 median values is calculated for each sample. Finally, the normalization factor is calculated by dividing the average median value for each sample by that for one of the mock digest conditions. […]
molecule,measurement,setting,value
B1,cleavage by endogenous Caspase-1 upon inflammasome activation (Western blot),endogenous Caspase-1,cleaved
same,scoring in the SEPARATE assay,Caspase-1 [1],did not score
B2,Fold enrichments,Caspase-1 [2],7.5 fold and 13 fold and 9 fold
B3,Thrombi Fold Change,Thrombin,10.98 fold
